The source of these data is patent publication US20230212304A1 (BIOSION, published 2023).

Read-outs that look alike come from different tables or passages of the source.

Test [1] addresses T1, recombinant human CTLA4 protein with human IgG1 Fc tag at the C-terminus (Acro biosystems, Cat#CT4-H5255) (human, UniProt P16410 37-162).
T1 construct: bought protein; also called human CTLA4-Fc; CTLA4-Fc; not shown: human IgG1 Fc tag at the C-terminus
T1 sequence (looked up): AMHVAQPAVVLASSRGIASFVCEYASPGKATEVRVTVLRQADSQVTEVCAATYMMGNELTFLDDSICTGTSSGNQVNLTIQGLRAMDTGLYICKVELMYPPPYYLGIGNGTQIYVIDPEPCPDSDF
In words: capture ELISA (plate coated with goat anti-human IgG F(ab')2 per paragraph 181), biotin human CTLA4-Fc, streptavidin-HRP, OD(450-630). The protocol:
(§1) Plates were washed once with wash buffer (PBS+0.05% v/v Tween-20, PBST) and then blocked with 200 µl/well blocking buffer (PBST with 5% w/v non-fatty milk) for 2 hours at 37° C. […] After a final wash, plates were incubated with 100 µl/well substrate TMB (Innoreagents, Cat#TMB-S-002). The reaction was stopped in 15 minutes at room temperature with 50 µl/well 1M H₂SO₄, and the absorbance of the each well was read on a microplate reader using dual wavelength mode with 450 nm for TMB and 630 nm as the reference wavelength, then the OD (450-630) values were plotted against antibody concentration. Data was analyzed using Graphpad Prism software and EC₅₀ values were reported.
(§2) In the capture ELISA assay, the 96-well micro plates were coated with 2 µg/ml goat anti-human IgG (AffiniPure Goat Anti-Human IgG, F(ab′)₂ fragment specific, Jackson Immunoresearch, Cat#109-005-097) instead of the goat anti-mouse IgG F(ab′)₂ fragment, 100 µl/well.

Test [2] addresses T2, cynomolgus monkey CTLA4-his protein (Acro biosystems, Cat#CT4-C5227) (cynomolgus monkey, UniProt G7PL88 36-161).
T2 construct: bought recombinant protein; also called Cynomolgus CTLA4-his; not shown: his tag
T2 sequence: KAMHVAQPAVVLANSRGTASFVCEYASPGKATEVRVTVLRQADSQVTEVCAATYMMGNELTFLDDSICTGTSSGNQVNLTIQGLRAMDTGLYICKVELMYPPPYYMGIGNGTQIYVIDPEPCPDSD
In words: SPR, Biacore; antibody captured on anti-human IgG CM5 chip, CTLA4-his as analyte. How it is done: (§3) Un-reacted moieties on the biosensor surface were blocked with ethanolamine. […] The antigen-antibody association kinetics was followed for 2 minutes and the dissociation kinetics was followed for 10 minutes. The association and dissociation curves were fit to a 1:1 Langmuir binding model using BIAcore evaluation software. […]

Test [3] concerns the target T3, recombinant human CTLA4-his protein (Acro biosystems, Cat#CT4-H5229) (human, UniProt P16410 37-162).
T3 construct: bought recombinant protein; not shown: his tag
T3 sequence (looked up): T1 sequence (looked up)
The description is as above. How it is done:
as §3

Test [4] deals with T3, recombinant human CTLA4-his protein …. As to the kind of experiment: BLI, Octet; antibody from cell supernatant on AHC sensor, CTLA4-his as analyte. How it is done:
(§4) Briefly, AHC biosensors (anti-human IgG Fc capture, from ForteBio) were presoaked with 10 mM glycine (pH 1.5) for 3 seconds, and then dipped in a well with running buffer (0.5% w/v BSA in PBST) for 3 seconds, the soaking and dipping steps were repeated for three times. […] A new baseline was run for 180 seconds in another well with running buffer. […] Finally, sensors were presoaked with 10 mM glycine (pH 1.5) for 3 seconds, and then were dipped in a well with running buffer for 3 seconds, the soaking and dipping steps repeated for three times. The association and dissociation curves were fit to a 1:1 Langmuir binding model using ForteBio Data Analysis 8.1.

Test [5] concerns the target T1, recombinant human CTLA4 protein with …. In words: cell-based or functional assay.
For test [6] the target is unchanged. In words: competitive ELISA: antibody pre-mixed with biotin human CTLA4-Fc, added to plate coated with the benchmark; competitor: coated Yervoy. How it is done:
(§5) Plates were washed once with wash buffer, blocked with 200 µl PBST with 5% w/v non-fatty milk, incubated for 2 hours at 37° C., and washed 4 times.
(§6) After incubation at 37° C. for 40 minutes, plates were washed 4 times again using wash buffer. Then the plates were added and incubated with 100 µl/well streptavidin conjugated HRP (1:10000 dilution in PBST, Jackson Immuno Research, Cat#016-030-084, 100 µl/well) for 40 minutes at 37° C. Plates were finally washed using wash buffer. Finally, TMB was added and the reaction was stopped using 1M H₂SO₄, and the absorbance of the each well was read on a microplate reader using dual wavelength mode with 450 nm for TMB and 630 nm as the reference wavelength, then the OD (450-630) values were plotted against antibody concentration. Data was analyzed using Graphpad Prism software and IC₅₀ values were reported.
as §2

For test [7] the target is unchanged. As to the kind of experiment: cell based blocking FACS: antibody pre-mixed with human CTLA4-Fc, added to Daudi cells; blocked ligands: cell surface CD80/CD86. How it is done:
(§7) Daudi cells were harvested from cell culture flasks at the log phase, washed twice and re-suspended in PBS containing 2% v/v Fetal Bovine Serum (FACS buffer). […] Cells were washed twice and re-suspended in FACS buffer. Fluorescence was measured using a Becton Dickinson FACS Canto II-HTS equipment. Data was analyzed using Graphpad Prism software and IC₅₀ values were reported.
as §2

Test [8] shares this target. As to the kind of experiment: competitive ELISA: antibody pre-mixed with biotin human CTLA4-Fc (65 ng/ml), added to plate coated with the benchmark; competitor: coated Yervoy. How it is done:
as §5, §6

For test [9] the target is unchanged. In words: capture ELISA: antibody captured on coated plate (anti-human IgG Fc for the chimeric antibodies), biotin human CTLA4-Fc, streptavidin-HRP, OD(450-630).
Test [10] shares this target. As to the kind of experiment: cell based blocking FACS: antibody pre-mixed with human CTLA4-Fc (1 ug/mL), added to Daudi cells; blocked ligands: cell surface CD80/CD86. The protocol: as §7
For test [11] the target is unchanged. As to the kind of experiment: cell-based or functional assay. This is another data set of the same source.
For test [12] the target is unchanged. As to the kind of experiment: cell based blocking FACS: antibody pre-mixed with human CTLA4-Fc, added to Daudi cells; blocked ligands: cell surface CD80/CD86. The source holds these as a separate data set.
Test [13] concerns the target T2, cynomolgus monkey CTLA4-his protein …. As to the kind of experiment: SPR, Biacore T200; antibody captured, CTLA4-his as analyte. How it is done:
(§8) Un-reacted moieties on the biosensor surface were blocked with ethanolamine. […] The antigen-antibody association kinetics was followed for 2 minutes and the dissociation kinetics was followed for 10 minutes. The association and dissociation curves were fit to a 1:1 Langmuir binding model using BIAcore evaluation software.

Test [14] addresses T3, recombinant human CTLA4-his protein …. The test is described as above. How it is done:
as §8

Test [15] concerns the target T1, recombinant human CTLA4 protein with …. As to the kind of experiment: capture ELISA: antibody captured on anti-mouse IgG F(ab')2 coated plate, biotin human CTLA4-Fc 26 ng/ml, streptavidin-HRP, OD(450-630). The protocol: as §1
Test [16] deals with T3, recombinant human CTLA4-his protein …. In words: BLI, Octet; antibody at 5 ug/ml on AHC sensor, CTLA4-his as analyte. The protocol:
as §4

Test [17] shares this target. As to the kind of experiment: BLI, Octet RED96; antibody on AHC sensor, CTLA4-his as analyte. The protocol:
as §4

B1: huC1D1-V8 (antibody, human IgG4 S228P, kappa, V domains shown)
VH: EVQLVESGGGLVQPGRSLRLSCTASGFTFSDNWMNWVRQAPGKGLEWVGQIRNKPYNYETYYSDSVKGRFTISRDDSKSIAYLQMNSLKTEDTAVYYCTGGMDYWGQGTTVTVSS
VL: DIQMTQSPSSLSASVGDRVTITCGASEIIYGALNWYQQKPGKSPKLLIYGATNLADGVPSRFSGSGSGTDFTLTISSLQPEDVATYYCQKILSPPPWTFGGGTKVEIKR
notes: humanized IgG4/kappa; cell supernatant on Octet, purified antibody in Biacore, ELISA, FACS and the functional assay; also called hu CTLA4 C1D1-V8
B1: the EC50 in [1] stood at 0.746 nM. Further, the Kd came out at 7.49 nM in test [2], 12 nM in test [3] and 0.614 nM in test [4]. The koff was 0.00112 s⁻¹ in test [2], 0.00086 s⁻¹ in test [3] and 0.00019 s⁻¹ in test [4]. The kon came out at 150000 M⁻¹ s⁻¹ in [2], 71900 M⁻¹ s⁻¹ in [3] and 309000 M⁻¹ s⁻¹ in test [4]. In addition, the “EC50 of IL-2 release (GS-J1 T cells + GS-C1/CD80 cells + human CTLA4-Fc, IL-2 HTRF)” value (shortened to “EC50 of IL-2 release”) in test [5] came out at 28.7 nM. The IC50 in [6] amounted to 1.71 nM; in test [7], 5.74 nM.

B2: mouse anti-CTLA4 monoclonal antibody C1D1 (antibody, V domains shown)
VH: EVKLDETGGGLVQPGRPLKLSCVASGFTFSDNWMNWVRQSPEKGLEWVAQIRNKPYNYETYYSDSVKGRFTISRDDSKSSVYLQMNNLRVEDMGIYYCTGGMDYWGQGTSVTVSS
VL: DIQMTQSPASLSASVGETVTITCGASEIIYGALNWYQQKQGKSPQLLIYGATNLADGMSSRFSGSGSGRQYSLKISSLHPDDAATYYCQKILSPPPWTFGGGTKLEIK
notes: mouse mAb purified from hybridoma supernatant
B2: the IC50 in test [8] is 0.338 nM; in test [10], 6.22 nM; in [6] it was 0.8 nM; in [12] it was about 11.6 nM; in test [7] it was about 9.72 nM. For the same molecule, the results for the 50% effective concentration (EC50) in test [1], in [9] and in test [15] were 0.121 nM, 0.445 nM and 0.0479 nM, respectively. Also, the “EC50 of IL-2 release” value in [5] was 30 nM; in test [11], 35.1 nM. The Kd amounted to 0.183 nM in test [13] and 0.399 nM in test [14]. The koff worked out at 8.76e-05 s⁻¹ in test [13] and 0.0001 s⁻¹ in [14]. Besides, the kon was 478000 M⁻¹ s⁻¹ in test [13] and 251000 M⁻¹ s⁻¹ in [14].

B3: chimeric C1D1 anti-CTLA4 antibody (antibody, human IgG4 S228P, kappa, V domains shown)
VH: B2 VH
VL: DIQMTQSPASLSASVGETVTITCGASEIIYGALNWYQQKQGKSPQLLIYGATNLADGMSSRFSGSGSGRQYSLKISSLHPDDAATYYCQKILSPPPWTFGGGTKLEIKR
notes: mouse variable domains on human IgG4/kappa, made in 293F cells
For B3, the EC50 in [1] was found to be 0.156 nM; in test [9], 0.505 nM. In addition, the Kd was 0.243 nM in test [2], 0.629 nM in [3], under 0.001 nM in test [16] and 0.335 nM in [17]. Also, the koff is 0.000398 s⁻¹ in test [2], 0.000422 s⁻¹ in test [3], under 1e-07 s⁻¹ in [16] and 0.000296 s⁻¹ in test [17]. Further, the kon is 1.64e+06 M⁻¹ s⁻¹ in [2], 670000 M⁻¹ s⁻¹ in [3], 525000 M⁻¹ s⁻¹ in test [16] and 884000 M⁻¹ s⁻¹ in [17]. The “EC50 of IL-2 release” value in test [5] worked out at 34 nM. Besides, the results for the IC50 in [6], in test [12] and in test [7] were 2.11 nM, 8.56 nM and about 9.96 nM, respectively.
